The results in this text go back to article PMC6412888, “Improving the Performance of Horseradish Peroxidase by Site-Directed Mutagenesis” (International Journal of Molecular Sciences, 2019).

For data set [1], the system named is T1, CCn1c(=NN=c2sc3cc(S(=O)(=O)O)ccc3n2CC)sc2cc(S(=O)(=O)O)ccc21.
T1 construct: mature HRP C1A without plant leader; E. coli BL21(DE3) periplasm, non-glycosylated, IMAC purified; hemin and CaCl2 added
The experiment in a line: purified protein. In kind it is biochemical, Armoracia rusticana.

Substrate in the data set “purified protein”: CCn1c(=NN=c2sc3cc(S(=O)(=O)O)ccc3n2CC)sc2cc(S(=O)(=O)O)ccc21
The experiment in a line: purified protein. In kind it is biochemical, Armoracia rusticana. Particulars: 1 mM H2O2, 50 mM KH2PO4 pH 5, 30 °C.

Where [2] appears, read: 1 mM H2O2, 50 mM BisTris/HCl pH 7, 7% glycerol, 100 mM NaCl, 30 °C.
Setting [3] is: 1 mM H2O2, 50 mM KH2PO4 pH 5, 30 °C.

As to “Benchmark rHRP (HRP variant C1A) (Armoracia rusticana; N298D/N87S)”, in data set [1] (setting [2]), the Km – broadly, the concentration of substrate that gives half-maximal velocity – is given as 4.18 ± 3.55 mM; the Vmax (usually the top rate of the reaction or transport when substrate is in excess) came to 60 µM/min; the kcat – broadly, the number of substrate molecules converted per active site and unit of time at saturation – worked out at 1.5 ± 0.58 s⁻¹; the kcat/Km – broadly, the turnover number divided by the Michaelis constant – was 360 ± 340 M⁻¹ s⁻¹.
For “Benchmark rHRP (HRP variant C1A) (Armoracia rusticana; N43D)”, in data set [1] (setting [2]), the Michaelis constant (Km) came out at 3.29 ± 0.33 mM, the Vmax was determined as 52.8 µM/min, the kcat came to 1.04 ± 0.05 s⁻¹ and the kcat/Km is 320 ± 40 M⁻¹ s⁻¹.
In the same order, the values of “Benchmark rHRP (HRP variant C1A) (Armoracia rusticana; N285D/N298D/N87S)” are 9.52 ± 6.89 mM, 240 µM/min, 4.81 ± 2.37 s⁻¹ and 510 ± 440 M⁻¹ s⁻¹.
The like results for “Benchmark rHRP (HRP variant C1A) (Armoracia rusticana; N87S)” were, in that order, 3.22 ± 0.59 mM, 162 µM/min, 2.1 ± 0.19 s⁻¹ and 640 ± 130 M⁻¹ s⁻¹.
Consider “Benchmark rHRP (HRP variant C1A) (Armoracia rusticana; N285D/N298D/N43D/N87S)”, for which, in data set [1] (setting [3]), the Michaelis constant (Km) is reported as 0.45 ± 0.12 mM, the maximum rate (Vmax) was 1080 µM/min, the catalytic constant (kcat) was 17.4 ± 1.01 s⁻¹ and the kcat/Km was 39100 ± 10500 M⁻¹ s⁻¹.
On to “Benchmark rHRP (HRP variant C1A) (Armoracia rusticana; N298D)”, for which, in data set [1] (setting [2]), the Km worked out at 7.85 ± 4.98 mM, the Vmax was 144 µM/min, the kcat amounted to 3 ± 1.25 s⁻¹ and the kcat/Km stood at 380 ± 290 M⁻¹ s⁻¹.
The like results for “Benchmark rHRP (HRP variant C1A) (Armoracia rusticana; N285D)” were, in that order, 4.37 ± 0.86 mM, 53.4 µM/min, 1.1 ± 0.12 s⁻¹ and 240 ± 50 M⁻¹ s⁻¹.

B1: Benchmark rHRP (HRP variant C1A) (Armoracia rusticana) (protein)
chain: QLTPTFYDNSCPNVSNIVRDTIVNELRSDPRIAASILRLHFHDCFVNGCDASILLDNTTSFRTEKDAFGNANSARGFPVIDRMKAAVESACPRTVSCADLLTIAAQQSVTLAGGPSWRVPLGRRDSLQAFLDLANANLPAPFFTLPQLKDSFRNVGLNRSSDLVALSGGHTFGKNQCRFIMDRLYNFSNTGLPDPTLNTTYLQTLRGLCPLNGNLSALVDFDLRTPTIFDNKYYVNLEEQKGLIQSDQELFSSPNATDTIPLVRSFANSTQTFFNAFVEAMDRMGNITPLTGTQGQIRLNCRVVNSNS
notes: mature HRP C1A without plant leader; E. coli BL21(DE3) periplasm, non-glycosylated, IMAC purified; hemin and CaCl2 added
For the molecule B1, in the data set “purified protein”, the Michaelis constant (Km) worked out at 0.44 ± 0.10 mM, the Vmax was determined as 120 µM/min, the kcat was 2.24 ± 0.11 s⁻¹ and the kcat/Km was found to be 5070 ± 1160 M⁻¹ s⁻¹.
